According to the supplement of paper PMC9732359:
± gives the uncertainty stated by the source.

Assay: protein stability index of a GFP-peptide fusion (yeast GPS) (PSI 1-4); higher = more stable; sorted into four equal gates, so the index is relative within each strain
Procedure, shortened: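 The protein stability index combines read frequencies across sorting gates, each weighted by its gate number and then summed. To obtain those frequencies, a pooled yeast library of GFP fusions to tiled 17-residue yeast protein peptides, on a plasmid also expressing Cherry, was grown to mid-log phase in leucine-free medium. The cells were sorted into four equal gates by GFP/Cherry ratio before plasmid amplification by PCR and Illumina sequencing.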

Sequence | protein stability index (doa10∆) | protein stability index (pdr5∆) | protein stability index (san1∆) | protein stability index (ubr1∆)
HLSTYLKVYKVGDIVDI [RPL21A] | 1.22 ± 0.075 | 1.49 ± 0.061 | 1.24 ± 0.16 | 1.16 ± 0.065
KDSLWQSEHLEAVVDQD [FAS1] | 3.43 ± 0.24 | 3.36 ± 0.14 | 3.46 ± 0.088 | 3.41 ± 0.09
ALAYAGTGNNSAVKRLL [RPN2] | 2.68 ± 0.1 | 2.71 ± 0.1 | 2.28 ± 0.14 | 3.26 ± 0.1
VKRIQSVPLVIGQFLEP [RPT3] | 1.58 ± 0.064 | 1.6 ± 0.063 | 2.38 ± 0.11 | 3 ± 0.094
TEKQRKKQIAFPQRKYA [RPL35A] | 1.16 ± 0.062 | 1.44 ± 0.096 | 1.13 ± 0.21 | 1.15 ± 0.08
MTMNGIPVKLLNEAQGH [SMD3] | 3.2 ± 0.12 | 3.39 ± 0.16 | 2.76 ± 0.091 | 3.1 ± 0.11
RLRALQLYFQKNGAQDL [RRI2] | 1.7 ± 0.06 | 1.95 ± 0.076 | 1.95 ± 0.087 | 2.44 ± 0.044
YALAAKDRFDIDEKSQF [RPN2] | 1.73 ± 0.09 | 2.1 ± 0.13 | 1.93 ± 0.17 | 2.66 ± 0.082
EALSEKPTREPTPSVKT [RPC53] | 3.11 ± 0.099 | 3.07 ± 0.085 | 3.2 ± 0.063 | 3.25 ± 0.089
ESSELNKDSIEECGRTI [CSN12] | 3.46 ± 0.18 | 2.92 ± 0.16 | 3.42 ± 0.089 | 3.28 ± 0.15
ETLENGETRMKMLNEFV [SMC2] | 2.87 ± 0.12 | 3.06 ± 0.24 | 3.17 ± 0.15 | –
ALSMGKSSAFVIDIGAS [ARP7] | 1.47 ± 0.043 | 1.95 ± 0.069 | 1.62 ± 0.092 | 2.1 ± 0.059
AMDRAHRIGQKKQVHVY [ISW2] | 2.71 ± 0.095 | 2.75 ± 0.078 | 2.84 ± 0.085 | 2.66 ± 0.074
NNLEKYPFRYKTWLRNQ [RTT102] | 3.37 ± 0.077 | 3.39 ± 0.053 | 3.32 ± 0.061 | 3.38 ± 0.067
IVTEQPSAEIREAYIEN [SWP82] | 2.47 ± 0.062 | 2.88 ± 0.062 | 2.74 ± 0.073 | 2.2 ± 0.065
LARSGLRIGRIEDVTPV [RPS14B] | 1.63 ± 0.046 | 1.95 ± 0.052 | 2.25 ± 0.062 | 2.07 ± 0.043
NHFKDTYGFSILDIVIN [FAS1] | 3.41 ± 0.12 | 3.28 ± 0.11 | 3.33 ± 0.091 | 3.29 ± 0.088
AGSGSTFIYGYCDKNFR [PRE3] | 1.24 ± 0.085 | 1.42 ± 0.057 | 1.51 ± 0.099 | 1.49 ± 0.059
ILNSIPAAANLDALVDC [YJL039C/NUP192] | 2.18 ± 0.074 | 2.72 ± 0.11 | 2.39 ± 0.067 | 2.5 ± 0.12
WSCIVVENWIIDDKGVL [ITC1] | 2.18 ± 0.058 | 2.72 ± 0.08 | 2.71 ± 0.12 | 2.95 ± 0.063
VEVLLVNYNSDMIKCFL [NUT1] | 1.58 ± 0.1 | 1.74 ± 0.077 | 1.51 ± 0.17 | 2.02 ± 0.13
DSKMIQDLSRNTLGKGQ [SNU114] | 3.25 ± 0.098 | 3.34 ± 0.11 | 3.34 ± 0.12 | 3.61 ± 0.14
YGPSFTKRESLNARMFL [SIR2] | 1.85 ± 0.068 | 2.42 ± 0.049 | 2.22 ± 0.08 | 1.65 ± 0.036
EQFLETDSDFAKYHAKL [SRP68] | 2.83 ± 0.07 | 2.94 ± 0.067 | 2.79 ± 0.05 | 2.77 ± 0.089
TSVTRRSPVFALNMLPS [GRR1] | 1.45 ± 0.038 | 1.61 ± 0.037 | 1.51 ± 0.061 | 1.73 ± 0.033
ILVGGTLKDYQIKGLQW [SNF2] | 2.99 ± 0.076 | 2.83 ± 0.077 | 3.01 ± 0.056 | 3.16 ± 0.047
